From publication PMC11624207, “Human PC4 supports telomere stability and viability in cells utilizing the alternative lengthening of telomeres mechanism” come the findings set out here.

This series has as its target PC4wt (His-tagged) (human, UniProt P53999 1-127). The series can be described thus: EMSA; EMSA: 50 mM HEPES pH 8, 1 mM DTT, 100 mM NaCl, 0.01% BSA, 2% glycerol; 20 min on ice then 10 min at 25 C; native 8% PAGE, 0.5x TBE, 4 C. As to conditions: protein: recombinant, tags: N-terminal 6xHis, chain copies: 2, label: 5'-32P, single strand. (Mobility shift assays separate free from complexed probe on a gel.)

B1: unrelated oligonucleotide (ssDNA)
DNA: GGACTCTAGCGTGGATCCTTAAGCTAGAAT
As to B1, the binding result was “binds”.

B2: telomeric C-rich (CCCTAA)5 (ssDNA)
DNA: CCCTAACCCTAACCCTAACCCTAACCCTAA
For the molecule B2, the binding result was “binds”.

B3: telomeric G-rich (TTAGGG)5 (ssDNA)
DNA: TTAGGGTTAGGGTTAGGGTTAGGGTTAGGG
For the molecule B3, for the setting “G4-capable”, the binding result is given as “binds”.

B4: mutant telomeric G-rich (TTACGG)5 (ssDNA)
DNA: TTACGGTTACGGTTACGGTTACGGTTACGG
With B4, the binding result (unable to form G4) is given as “binds”.
